T1: PUF4 RNA-binding domain (Saccharomyces cerevisiae, UniProt P25339 537-888)
T1 sequence: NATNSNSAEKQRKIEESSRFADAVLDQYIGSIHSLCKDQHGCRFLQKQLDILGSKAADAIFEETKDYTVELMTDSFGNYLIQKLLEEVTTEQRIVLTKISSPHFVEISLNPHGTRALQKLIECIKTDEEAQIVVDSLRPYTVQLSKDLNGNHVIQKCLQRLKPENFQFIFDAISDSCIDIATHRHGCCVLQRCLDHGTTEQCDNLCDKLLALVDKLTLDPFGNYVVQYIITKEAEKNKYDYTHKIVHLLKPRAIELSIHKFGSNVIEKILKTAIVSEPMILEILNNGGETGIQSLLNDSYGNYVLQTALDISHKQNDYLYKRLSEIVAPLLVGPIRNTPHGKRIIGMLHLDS

B1: Id_ii_S4_P4E.4_K4.3_C4.2_[C-2G]_[T-1C]_H4.3_A4.1_F4.1_T4.2_[G10C]_[T11G] (ssRNA)
RNA: UUUGACAACUGAUCGUUCUUUCUGCACACUAUUACGUUCUUUCUCGAUCAGUUGUCUUU
B2: Id_ii_S4_P4E.4_K4.3_C4.2_[C-2A]_[T-1C]_H4.3_A4.1_F4.1_T4.2_[G10C] (ssRNA)
RNA: UUUGACAACUGAUCGUUCUUUCUACACACUAUUACUUUCUUUCUCGAUCAGUUGUCUUU
B3: Id_ii_S4_P4E.4_K4.3_C4.2_[C-2G]_[T-1C]_H4.3_A4.1_F4.1_T4.2_[G10T]_[T11A] (ssRNA)
RNA: UUUGACAACUGAUCGUUCUUUCUGCACACUAUUAUAUUCUUUCUCGAUCAGUUGUCUUU
B4: Id_ii_S4_P4E.4_K4.3_C4.2_[C-2T]_[T-1A]_H4.3_A4.1_F4.1_T4.2_[G10T]_[T11A] (ssRNA)
RNA: UUUGACAACUGAUCGUUCUUUCUUAACACUAUUAUAUUCUUUCUCGAUCAGUUGUCUUU
B5: Id_ii_S4_P4E.4_K4.3_C4.2_[C-2T]_[T-1A]_H4.3_A4.1_F4.1_T4.2_[G10C]_[T11A] (ssRNA)
RNA: UUUGACAACUGAUCGUUCUUUCUUAACACUAUUACAUUCUUUCUCGAUCAGUUGUCUUU
B6: Id_ii_S4_P4E.3_K4.2_C4.2_H4.2_A4.1_F4.1_T4.2_[T11C] (ssRNA)
RNA: UUUGACAACUGAUCGUUCUUUCUCUUAUAUAUUAGCUUCUUUCUCGAUCAGUUGUCUUU
B7: Id_ii_S4_P4E.4_K4.3_C4.2_[T-1C]_H4.3_A4.1_F4.1_T4.2_[G10C] (ssRNA)
RNA: UUUGACAACUGAUCGUUCUUUCUCCACACUAUUACUUUCUUUCUCGAUCAGUUGUCUUU
B8: Id_ii_S4_P4E.4_K4.3_C4.2_[C-2G]_H4.3_A4.1_F4.1_T4.2_[G10C]_[T11C] (ssRNA)
RNA: UUUGACAACUGAUCGUUCUUUCUGUACACUAUUACCUUCUUUCUCGAUCAGUUGUCUUU
B9: Id_ii_S4_P4E.4_K4.3_C4.2_H4.3_A4.1_F4.1_T4.2_[G10A]_[T11C] (ssRNA)
RNA: UUUGACAACUGAUCGUUCUUUCUCUACACUAUUAACUUCUUUCUCGAUCAGUUGUCUUU
B10: Id_ii_S4_P4E.4_K4.3_C4.2_[T-1C]_H4.3_A4.1_F4.1_T4.2_[G10A] (ssRNA)
RNA: UUUGACAACUGAUCGUUCUUUCUCCACACUAUUAAUUUCUUUCUCGAUCAGUUGUCUUU
B11: Id_ii_S4_P4E.4_K4.3_C4.2_[C-2A]_H4.3_A4.1_F4.1_T4.2_[G10C]_[T11C] (ssRNA)
RNA: UUUGACAACUGAUCGUUCUUUCUAUACACUAUUACCUUCUUUCUCGAUCAGUUGUCUUU
B12: Id_ii_S4_P4E.4_K4.3_C4.2_[C-2T]_[T-1A]_H4.3_A4.1_F4.1_T4.2 (ssRNA)
RNA: UUUGACAACUGAUCGUUCUUUCUUAACACUAUUAGUUUCUUUCUCGAUCAGUUGUCUUU
B13: Id_ii_S4_P4E.4_K4.3_C4.2_[T-1A]_H4.3_A4.1_F4.1_T4.2_[T11C] (ssRNA)
RNA: UUUGACAACUGAUCGUUCUUUCUCAACACUAUUAGCUUCUUUCUCGAUCAGUUGUCUUU
B14: Id_ii_S4_P4E.4_K4.3_C4.2_H4.3_A4.1_F4.1_T4.2_[G10C]_[T11A] (ssRNA)
RNA: UUUGACAACUGAUCGUUCUUUCUCUACACUAUUACAUUCUUUCUCGAUCAGUUGUCUUU
B15: Id_ii_S4_P4E.4_K4.3_C4.2_[C-2G]_H4.3_A4.1_F4.1_T4.2_[G10A]_[T11A] (ssRNA)
RNA: UUUGACAACUGAUCGUUCUUUCUGUACACUAUUAAAUUCUUUCUCGAUCAGUUGUCUUU
B16: Id_ii_S4_P4E.4_K4.3_C4.2_[C-2T]_[T-1C]_H4.3_A4.1_F4.1_T4.2_[G10A]_[T11C] (ssRNA)
RNA: UUUGACAACUGAUCGUUCUUUCUUCACACUAUUAACUUCUUUCUCGAUCAGUUGUCUUU
B17: Id_ii_S4_P4E.4_K4.3_C4.2_[T-1C]_H4.3_A4.1_F4.1_T4.2_[G10T]_[T11A] (ssRNA)
RNA: UUUGACAACUGAUCGUUCUUUCUCCACACUAUUAUAUUCUUUCUCGAUCAGUUGUCUUU
B18: Id_ii_S4_P4E.4_K4.3_C4.2_[T-1G]_H4.3_A4.1_F4.1_T4.2_[G10C]_[T11C] (ssRNA)
RNA: UUUGACAACUGAUCGUUCUUUCUCGACACUAUUACCUUCUUUCUCGAUCAGUUGUCUUU
B19: Id_ii_S4_P4E.4_K4.3_C4.2_[C-2T]_[T-1A]_H4.3_A4.1_F4.1_T4.2_[G10T]_[T11C] (ssRNA)
RNA: UUUGACAACUGAUCGUUCUUUCUUAACACUAUUAUCUUCUUUCUCGAUCAGUUGUCUUU
B20: Id_ii_S4_P4E.4_K4.3_C4.2_[T-1A]_H4.3_A4.1_F4.1_T4.2_[G10C] (ssRNA)
RNA: UUUGACAACUGAUCGUUCUUUCUCAACACUAUUACUUUCUUUCUCGAUCAGUUGUCUUU
B21: Id_ii_S4_P4E.4_K4.3_C4.2_[C-2G]_H4.3_A4.1_F4.1_T4.2_[G10A]_[T11C] (ssRNA)
RNA: UUUGACAACUGAUCGUUCUUUCUGUACACUAUUAACUUCUUUCUCGAUCAGUUGUCUUU
B22: Id_ii_S4_P4E.4_K4.3_C4.2_[C-2G]_H4.3_A4.1_F4.1_T4.2_[G10T]_[T11A] (ssRNA)
RNA: UUUGACAACUGAUCGUUCUUUCUGUACACUAUUAUAUUCUUUCUCGAUCAGUUGUCUUU
B23: Id_ii_S4_P4E.4_K4.3_C4.2_[C-2G]_H4.3_A4.1_F4.1_T4.2_[G10T] (ssRNA)
RNA: UUUGACAACUGAUCGUUCUUUCUGUACACUAUUAUUUUCUUUCUCGAUCAGUUGUCUUU
B24: If_S4_P4E.3_K4.2_C4.2_H4.2_A4.1_F4.1_T4.2 (ssRNA)
RNA: UUUGACAACUGAUCGUUCUUUCUCUUAUAUAUUAGUUUCUUUCUCGAUCAGUUGUCUUU
B25: Id_ii_S4_P4E.4_K4.3_C4.2_[T-1G]_H4.3_A4.1_F4.1_T4.2_[G10T] (ssRNA)
RNA: UUUGACAACUGAUCGUUCUUUCUCGACACUAUUAUUUUCUUUCUCGAUCAGUUGUCUUU
B26: Id_ii_S4_P4E.4_K4.3_C4.2_[T-1C]_H4.3_A4.1_F4.1_T4.2_[G10C]_[T11C] (ssRNA)
RNA: UUUGACAACUGAUCGUUCUUUCUCCACACUAUUACCUUCUUUCUCGAUCAGUUGUCUUU
B27: Id_ii_S4_P4E.4_K4.3_C4.2_[T-1A]_H4.3_A4.1_F4.1_T4.2 (ssRNA)
RNA: UUUGACAACUGAUCGUUCUUUCUCAACACUAUUAGUUUCUUUCUCGAUCAGUUGUCUUU
B28: Id_ii_S4_P4E.4_K4.3_C4.2_[C-2T]_[T-1A]_H4.3_A4.1_F4.1_T4.2_[G10A]_[T11C] (ssRNA)
RNA: UUUGACAACUGAUCGUUCUUUCUUAACACUAUUAACUUCUUUCUCGAUCAGUUGUCUUU
B29: Id_ii_S4_P4E.4_K4.3_C4.2_[C-2T]_[T-1C]_H4.3_A4.1_F4.1_T4.2_[G10T]_[T11C] (ssRNA)
RNA: UUUGACAACUGAUCGUUCUUUCUUCACACUAUUAUCUUCUUUCUCGAUCAGUUGUCUUU
B30: Id_ii_S4_P4E.4_K4.3_C4.2_[C-2A]_H4.3_A4.1_F4.1_T4.2_[G10A] (ssRNA)
RNA: UUUGACAACUGAUCGUUCUUUCUAUACACUAUUAAUUUCUUUCUCGAUCAGUUGUCUUU
B31: Id_ii_S4_P4E.4_K4.3_C4.2_[T-1G]_H4.3_A4.1_F4.1_T4.2_[G10C]_[T11A] (ssRNA)
RNA: UUUGACAACUGAUCGUUCUUUCUCGACACUAUUACAUUCUUUCUCGAUCAGUUGUCUUU
B32: Id_ii_S4_P5E.2_K5.1_C5.2_[C-2G]_[T-1C]_H5.1_A5.1_F5.1_T5.2_[T11A]_[A12T] (ssRNA)
RNA: UUUGACAACUGAUCGUUCUUUCUGCUGUAUUAUUAAUUUCUUUCUCGAUCAGUUGUCUUU
B33: Id_ii_S4_P5E.2_K5.1_C5.2_[C-2G]_H5.1_A5.1_F5.1_T5.2_[T11A] (ssRNA)
RNA: UUUGACAACUGAUCGUUCUUUCUGUUGUAUUAUUAAAUUCUUUCUCGAUCAGUUGUCUUU
B34: Id_ii_S4_P5E.2_K5.1_C5.2_[C-2G]_[T-1C]_H5.1_A5.1_F5.1_T5.2_[A12C] (ssRNA)
RNA: UUUGACAACUGAUCGUUCUUUCUGCUGUAUUAUUAUCUUCUUUCUCGAUCAGUUGUCUUU

Molecular target: T1, PUF4 RNA-binding domain
Test: Mg; RNA-MaP; 20 mM Na-HEPES pH 7.4, 30 mM KOAc, 0.75 mM MgCl2, 0.1% Tween-20, 5% glycerol, 0.1 mg/mL BSA, 2 mM DTT; 25 C; 0.0125-409.6 nM protein
Details: tags: N-His6-TEV cleaved; C-SNAP kept, Cy3B-labelled; label: tethered on chip by stalled RNA polymerase

| Binder | Kd |
| --- | --- |
| B1 | 2 µM |
| B2 | > 2.3 µM |
| B3 | 0.0285 µM |
| B4 | 0.716 µM |
| B5 | > 2.3 µM |
| UCUCUUUAUAUUUUUAUCUCUU (ssRNA) [Ib_S1_P5E.1_K5.1_C5.1_H5.1_[G2A]_A5.1_[A7T]_F5.1_T5.1] | 0.742 µM |
| B6 | 0.00507 µM |
| B7 | > 2.3 µM |
| B8 | 0.00102 µM |
| B9 | 1.21 µM |
| B10 | > 2.3 µM |
| B11 | 0.0149 µM |
| B12 | > 2.3 µM |
| B13 | > 2.3 µM |
| B14 | 0.944 µM |
| B15 | 0.000535 µM |
| B16 | 2.11 µM |
| B17 | 0.728 µM |
| B18 | > 2.3 µM |

| Binder | Kd |
| --- | --- |
| B19 | > 2.3 µM |
| B20 | > 2.3 µM |
| B21 | 0.00154 µM |
| B22 | 0.000647 µM |
| B23 | 0.000388 µM |
| B24 | 0.00897 µM |
| B25 | > 2.3 µM |
| B26 | 1.36 µM |
| B27 | > 2.3 µM |
| B28 | > 2.3 µM |
| B29 | > 2.3 µM |
| B30 | 0.0282 µM |
| B31 | > 2.3 µM |
| B32 | 0.00313 µM |
| B33 | 0.00657 µM |
| B34 | 0.00529 µM |
| UCUCUUUAUAUUGUUAUCUCUU (ssRNA) [Ib_S1_P5E.1_K5.1_C5.1_H5.1_[G2A]_A5.1_[A7G]_F5.1_T5.1] | 0.846 µM |
| UCUCUUUAUAUUCUUAUCUCUU (ssRNA) [Ib_S1_P5E.1_K5.1_C5.1_H5.1_[G2A]_A5.1_[A7C]_F5.1_T5.1] | 0.801 µM |

Source: publication PMC9352680, “A comprehensive thermodynamic model for RNA binding by the Saccharomyces cerevisiae Pumilio protein PUF4”
